Drawing on article PMC12834908, this text covers Ca^2+/CaM-dependent kinase activity kobs (2 μM CaM, 450 μM PepS peptide substrate) for 1 substance.

Assay [1] has as its target S500D-eEF-2K, phosphorylated at T348 (S500D-eEF-2K^p) (UniProt O00418).
Assay [2] deals with eukaryotic elongation factor-2 kinase, wild type, phosphorylated at T348 (eEF-2K^p) (UniProt O00418).

In the case of “calmodulin (CaM) (from UniProt P0DP23 1-149) (natural protein)”, the Ca^2+/CaM-dependent kinase activity kobs (2 μM CaM, 450 μM PepS peptide substrate) in assay [1] is 33 s⁻¹; in assay [2] it was 40 s⁻¹.
